{
  "source": "patent US5385834",
  "key": {"[1]": {"target": "T7 RNA polymerase mutant GP1(lys222) E222K (Bacteriophage T7) (UniProt P00573)", "conditions": "in vitro transcription, +/-0.008 vs T7 promoter; 40 nM enzyme; may be nonspecific initiation"}, "[2]": {"target": "T7 RNA polymerase (wild-type) (Bacteriophage T7) (UniProt P00573)", "conditions": "in vitro transcription, +/-0.003 vs T7 promoter; 80 nM enzyme"}},
  "data": [
    {"substance": "T3 promoter plasmid pLM10", "values": [
      {"measurement": "activity", "setting": "[1]", "result": 0.027, "unit": "relative"},
      {"measurement": "activity", "setting": "[2]", "result": 0.009, "unit": "relative"}
    ]}
  ]
}
